From paper PMC11765556, “Cytosine Methylation Changes the Preferred Cis-Regulatory Configuration of Arabidopsis WUSCHEL-Related Homeobox 14” come the findings set out here.

The target of series [1] is T1, AtWOX14 (homodimer on DNA) (Arabidopsis thaliana, UniProt Q9LM84 1-211).
T1 sequence: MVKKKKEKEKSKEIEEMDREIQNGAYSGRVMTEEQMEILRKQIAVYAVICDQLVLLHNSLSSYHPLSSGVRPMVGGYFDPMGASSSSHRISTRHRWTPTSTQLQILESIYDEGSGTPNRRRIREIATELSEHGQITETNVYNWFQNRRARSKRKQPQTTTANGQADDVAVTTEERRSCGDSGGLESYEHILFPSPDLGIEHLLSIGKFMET
In words: EMSA; 25-200 nM WOX14; dimeric shift; EMSA: 10 mM Tris (pH not stated), 50 mM NaCl, 1 mM MgCl2, 4% glycerol, 0.5 mM EDTA, 25 C 40 min, 30 ng probe in 20 uL; 6% native PAGE, 0.5x TBE, 4 C. Conditions: protein: recombinant; tags: N-terminal His (pETG20A-His); chain copies: 2. In general terms: Mobility shift assays separate free from complexed probe on a gel.

The target of a further series is T2, AtWOX14 (monomer) (Arabidopsis thaliana, UniProt Q9LM84 1-211).
T2 sequence: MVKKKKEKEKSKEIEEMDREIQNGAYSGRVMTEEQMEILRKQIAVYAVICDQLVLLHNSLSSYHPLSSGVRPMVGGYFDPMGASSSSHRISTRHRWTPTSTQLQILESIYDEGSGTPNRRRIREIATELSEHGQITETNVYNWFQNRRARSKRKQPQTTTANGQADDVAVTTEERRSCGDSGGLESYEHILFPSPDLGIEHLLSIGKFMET
Description: EMSA; 50-200 nM WOX14; monomeric shift; EMSA: 10 mM Tris (pH not stated), 50 mM NaCl, 1 mM MgCl2, 4% glycerol, 0.5 mM EDTA, 25 C 40 min, 30 ng probe in 20 uL; 6% native PAGE, 0.5x TBE, 4 C. Conditions: protein: recombinant; tags: N-terminal His (pETG20A-His).

The target of series [2] is T1, AtWOX14 (homodimer on DNA). In words: EMSA; 50-200 nM WOX14; dimeric shift at high protein; EMSA: 10 mM Tris (pH not stated), 50 mM NaCl, 1 mM MgCl2, 4% glycerol, 0.5 mM EDTA, 25 C 40 min, 30 ng probe in 20 uL; 6% native PAGE, 0.5x TBE, 4 C. The note with it: protein: recombinant; tags: N-terminal His (pETG20A-His); chain copies: 2.

B1: ER0-AT1G15640 (dsDNA)
DNA 1: AATAAGATGTACCCAATGATTGCAATGATGAGCCCAATGAGTGC
DNA 2: GCACTCATTGGGCTCATCATTGCAATCATTGGGTACATCTTATT
B1: the binding result in series [1] is reported as “binds”.

B2: ER1 (dsDNA)
DNA 1: ATGCTAGCTCCATCTGTGATTGACAATCAATGGCGGTGACGTACT
DNA 2: AGTACGTCACCGCCATTGATTGTCAATCACAGATGGAGCTAGCAT
As to B2, the binding result (with AtWOX14 (monomer); in series [2]) was “binds” each time.

B3: M1 (dsDNA)
DNA 1: ATGCTAGCTCCATCTGTATTGATTGTTTATGGCGGTGACGTACT
DNA 2: AGTACGTCACCGCCATAAACAATCAATACAGATGGAGCTAGCAT
In the case of B3, in the series with AtWOX14 (monomer), the binding result is “binds”.

B4: ER0 (dsDNA)
DNA 1: ATGCTAGCTCCATCTGTGATTGCAATCAATGGCGGTGACGTACT
DNA 2: AGTACGTCACCGCCATTGATTGCAATCACAGATGGAGCTAGCAT
Take B4: the binding result (in the series with AtWOX14 (monomer); in series [2]) was “binds” throughout.
